{"source": "paper PMC6595007", "about": "“Structural basis for cooperativity of human monoclonal antibodies to meningococcal factor H-binding protein” (Communications Biology, 2019)", "conditions_in_all_cases": "both partners purified", "key": {"[1]": {"target": "T1, factor H-binding protein variant 1 (fHbp var.1), recombinant, full length (Neisseria meningitidis, UniProt E6MV22)", "T1 construct": "source: E. coli BL21 (DE3) Star, pET-21b, purified (HisTrap HP, HiTrap SP HP)", "test": "negative-stain transmission electron microscopy (single particle, random conical tilt); complexes formed at 1:1 molar ratio, 1 h at room temperature, purified on Superdex 200 Increase; diluted to 0.03 mg/ml in 20 mM Tris, 300 mM NaCl, pH 8; 1% uranyl acetate"}, "[2]": {"target": "T1, factor H-binding protein variant 1 …", "test": "HDX-MS; 54 pmol antibody mixed with an equimolar amount of fHbp var.1, 30 min at room temperature; exposure 30 s to 30 min; difference counted when above 1 Da"}, "[3]": {"target": "T2, human factor H (human, UniProt P08603 19-1231)", "T2 construct": "also called fH; human fH", "T2 sequence (P08603 19-1231)": "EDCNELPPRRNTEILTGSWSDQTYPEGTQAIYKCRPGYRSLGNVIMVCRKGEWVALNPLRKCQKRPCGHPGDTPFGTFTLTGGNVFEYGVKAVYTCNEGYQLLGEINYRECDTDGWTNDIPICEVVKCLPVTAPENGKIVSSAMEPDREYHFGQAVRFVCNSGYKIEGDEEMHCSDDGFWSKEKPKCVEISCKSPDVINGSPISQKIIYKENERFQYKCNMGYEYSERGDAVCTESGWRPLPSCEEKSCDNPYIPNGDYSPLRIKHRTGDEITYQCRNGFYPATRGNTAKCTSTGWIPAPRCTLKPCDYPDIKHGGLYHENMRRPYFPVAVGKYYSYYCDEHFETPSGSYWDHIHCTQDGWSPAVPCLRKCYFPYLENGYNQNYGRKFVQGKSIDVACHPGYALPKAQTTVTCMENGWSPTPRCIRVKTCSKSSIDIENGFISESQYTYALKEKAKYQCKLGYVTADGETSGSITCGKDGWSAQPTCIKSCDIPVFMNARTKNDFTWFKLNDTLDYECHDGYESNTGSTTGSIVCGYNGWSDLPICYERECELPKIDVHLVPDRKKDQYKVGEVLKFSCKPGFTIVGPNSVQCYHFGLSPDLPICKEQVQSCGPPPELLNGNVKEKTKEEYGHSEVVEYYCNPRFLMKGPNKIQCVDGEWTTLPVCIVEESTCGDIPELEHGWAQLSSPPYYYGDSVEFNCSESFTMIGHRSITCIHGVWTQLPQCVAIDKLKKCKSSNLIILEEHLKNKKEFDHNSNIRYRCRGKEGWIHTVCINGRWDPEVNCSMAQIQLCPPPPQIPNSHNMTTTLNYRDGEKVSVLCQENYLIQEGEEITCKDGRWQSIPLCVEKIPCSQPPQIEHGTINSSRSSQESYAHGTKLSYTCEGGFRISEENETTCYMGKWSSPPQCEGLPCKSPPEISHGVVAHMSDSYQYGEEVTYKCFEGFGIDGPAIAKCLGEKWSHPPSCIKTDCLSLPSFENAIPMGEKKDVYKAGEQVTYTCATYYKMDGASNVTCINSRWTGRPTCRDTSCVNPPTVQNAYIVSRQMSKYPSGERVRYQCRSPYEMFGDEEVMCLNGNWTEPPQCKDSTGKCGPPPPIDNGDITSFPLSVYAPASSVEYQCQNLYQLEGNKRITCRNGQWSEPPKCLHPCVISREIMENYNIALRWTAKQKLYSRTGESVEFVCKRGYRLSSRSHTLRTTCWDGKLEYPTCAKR", "test": "SPR; quaternary complex: fHbp var.1 captured on immobilised mAb 1A12, second mAb 1A3 injected, then fH at 100 nM, 30 µl/min; HBS-P"}, "[4]": {"target": "T2, human factor H", "test": "SPR; fHbp var.1 captured on immobilised mAb 1A12, second mAb 1A12 injected (identical, no signal of the second mAb), then fH at 100 nM, 30 µl/min; HBS-P"}, "[5]": {"target": "T2, human factor H", "test": "SPR; ternary complex: fHbp var.1 captured on immobilised mAb 1A12 (CM-5), no second mAb; fH injected at 100 nM, 30 µl/min; HBS-P"}, "[6]": {"target": "T2, human factor H", "test": "SPR; quaternary complex: fHbp var.1 captured on immobilised mAb 1A3, second mAb 1A12 injected, then fH at 100 nM, 30 µl/min; HBS-P"}, "[7]": {"target": "T2, human factor H", "test": "SPR; quaternary complex: fHbp var.1 captured on immobilised mAb 7B10, second mAb 1A12 injected, then fH at 100 nM, 30 µl/min; HBS-P"}, "[8]": {"target": "T2, human factor H", "test": "SPR; quaternary complex: fHbp var.1 captured on immobilised mAb 7B10, second mAb 2C1 injected, then fH at 100 nM, 30 µl/min; HBS-P"}, "[9]": {"target": "T2, human factor H", "test": "SPR; ternary complex: fHbp var.1 captured on immobilised mAb 7B10 (CM-5), no second mAb; fH injected at 100 nM, 30 µl/min; HBS-P"}, "[10]": {"target": "T2, human factor H", "test": "SPR; fHbp var.1 captured on immobilised mAb 1A3, second mAb 1A3 injected (identical, no signal of the second mAb), then fH at 100 nM, 30 µl/min; HBS-P"}, "[11]": {"target": "T2, human factor H", "test": "SPR; quaternary complex: fHbp var.1 captured on immobilised mAb 1A3, second mAb 2C1 injected, then fH at 100 nM, 30 µl/min; HBS-P"}, "[12]": {"target": "T2, human factor H", "test": "SPR; fHbp var.1 captured on immobilised mAb 7B10, second mAb 1A3 injected, then fH at 100 nM, 30 µl/min; HBS-P"}, "[13]": {"target": "T2, human factor H", "test": "SPR; fHbp var.1 captured on immobilised mAb 1A12, second mAb 2C1 injected, then fH at 100 nM, 30 µl/min; HBS-P"}, "[14]": {"target": "T2, human factor H", "test": "SPR; ternary complex: fHbp var.1 captured on immobilised mAb 1A3 (CM-5), no second mAb; fH injected at 100 nM, 30 µl/min; HBS-P"}, "[15]": {"target": "T1, factor H-binding protein variant 1 …", "test": "SPR"}}}
{"binder": "antigen-binding fragment of human mAb 2C1 (Fab, V domains shown, also called fAb2C1; huFab 2C1; source: E. coli Rosetta 2, purified (His Gravity Trap, HiTrap SP HP)) VH: QVQLVESGGGVVQPGRSLRLSCAASGFTFSSFAMHWVRQAPGKGLEWVAVTSFDGKDEYYAASVKGRFSVSRDISKNTVYLQMNSLKTEDTAVYYCAKDRGDWDFDYWGQGTLVTVSS VL: SYELTQPPSVSVSPGQTATITCSGEKLGDKYTSWYQQKPGQSPVLIIYQDTKRPSGIPARFSGSNSGNTATLTISGTQAVDEADYYCQAWDSYTVPFGGGTKLTVL", "values": [{"measurement": "binding result", "setting": "[1]", "value": "binds"}]}
{"binder": "human monoclonal antibody 2C1 (IgG1) against fHbp (antibody, V domains shown, also called mAb2C1; mAb 2C1; source: Expi293 cells, transiently transfected, purified (protein G beads)) VH: QVQLVESGGGVVQPGRSLRLSCAASGFTFSSFAMHWVRQAPGKGLEWVAVTSFDGKDEYYAASVKGRFSVSRDISKNTVYLQMNSLKTEDTAVYYCAKDRGDWDFDYWGQGTLVTVSS VL: SYELTQPPSVSVSPGQTATITCSGEKLGDKYTSWYQQKPGQSPVLIIYQDTKRPSGIPARFSGSNSGNTATLTISGTQAVDEADYYCQAWDSYTVPFGGGTKLTVL", "values": [{"measurement": "binding result", "setting": "[2]", "value": "binds"}]}
{"binder": "human monoclonal antibody 7B10 (IgG1) against fHbp (antibody, V domains shown, also called mAb7B10; mAb 7B10; source: Expi293 cells, transiently transfected, purified (protein G beads)) VH: QVQLVESGGGLVQPGGSLRLSCVTSGFTFRSYAMTWVRQAPGKGLEWVSSISHSGGSTKYADSVKGRLTISRDDSMDTLYLQMNSLRAEDTAIYYCAKDQISYPAASPLDYWGRGTLVTVSS VL: EIVLTQSPGTLSLSPGERATLSCRASQSFSSFSLAWYQQKPGQAPRLLIYAPSNRATGIADRFSGSGSGTDFTLTISRLEPEDFAVYYCQQYGSSPITFGQGTRLEIK", "values": [{"measurement": "binding result", "setting": "[2]", "value": "binds"}]}
{"binder": "antigen-binding fragment of human mAb 7B10 (Fab, V domains shown, also called fAb7B10; huFab 7B10; source: E. coli Rosetta 2, purified (His Gravity Trap, HiTrap SP HP)) VH: QVQLVESGGGLVQPGGSLRLSCVTSGFTFRSYAMTWVRQAPGKGLEWVSSISHSGGSTKYADSVKGRLTISRDDSMDTLYLQMNSLRAEDTAIYYCAKDQISYPAASPLDYWGRGTLVTVSS VL: EIVLTQSPGTLSLSPGERATLSCRASQSFSSFSLAWYQQKPGQAPRLLIYAPSNRATGIADRFSGSGSGTDFTLTISRLEPEDFAVYYCQQYGSSPITFGQGTRLEIK", "values": [{"measurement": "binding result", "setting": "[1]", "value": "binds"}]}
{"binder": "factor H-binding protein variant 1 (fHbp var.1), recombinant, full length (natural protein, source: E. coli BL21 (DE3) Star, pET-21b, purified (HisTrap HP, HiTrap SP HP)) CSSGGGGVAADIGAGLADALTAPLDHKDKGLQSLTLDQSVRKNEKLKLAAQGAEKTYGNGDSLNTGKLKNDKVSRFDFIRQIEVDGQLITLESGEFQVYKQSHSALTAFQTEQIQDSEHSGKMVAKRQFRIGDIAGEHTSFDKLPEGGRATYRGTAFGSDDAGGKLTYTIDFAAKQGNGKIEHLKSPELNVDLAAADIKPDGKRHAVISGSVLYNQAEKGSYSLGIFGGKAQEVAGSAEVKTVNGIRHIGLAAKQ", "values": [{"measurement": "koff", "setting": "[3]", "value": 0.00068, "unit": "s⁻¹"}, {"measurement": "koff", "setting": "[4]", "value": 0.0018, "unit": "s⁻¹"}, {"measurement": "koff", "setting": "[5]", "value": 0.0016, "unit": "s⁻¹"}, {"measurement": "koff", "setting": "[6]", "value": 0.00035, "unit": "s⁻¹"}, {"measurement": "koff", "setting": "[7]", "value": 0.00011, "unit": "s⁻¹"}, {"measurement": "koff", "setting": "[8]", "value": 0.00029, "unit": "s⁻¹"}, {"measurement": "koff", "setting": "[9]", "value": 0.00032, "unit": "s⁻¹"}, {"measurement": "koff", "setting": "[10]", "value": 0.00074, "unit": "s⁻¹"}, {"measurement": "koff", "setting": "[11]", "value": 0.00063, "unit": "s⁻¹"}, {"measurement": "koff", "setting": "[12]", "value": 0.00032, "unit": "s⁻¹"}, {"measurement": "koff", "setting": "[13]", "value": 0.043, "unit": "s⁻¹"}, {"measurement": "koff", "setting": "[14]", "value": 0.00074, "unit": "s⁻¹"}]}
{"binder": "human monoclonal antibody 1A12 (IgG1) against fHbp (antibody, V domains shown, also called mAb1A12; mAb 1A12; source: Expi293 cells, transiently transfected, purified (protein G beads)) VH: EVQLVQSGAELKKPGESLKISCKASGYTFTNYWVVWVRQMPGEGLEWMGSIHPRDSDARYSLSFEGRVTFSVDKSTTTAYLQWSSLKVSDSAIYYCARLSQVSGWSPWVGPWGQGTLVTVSS VL: DIVMTQSPSSLSASVGDRVTITCRASQSISVSLNWYQQKPGKAPKVLIYAASRLQSGIPSRFSGSGSGSHFTLTISSLQPEDFATYYCQETYSDLMYTFGQGTKVEIK", "values": [{"measurement": "binding result", "setting": "[15]", "value": "binds"}]}
{"binder": "human monoclonal antibody 1A3 (IgG1) against fHbp (antibody, V domains shown, also called mAb1A3; mAb 1A3; source: Expi293 cells, transiently transfected, purified (protein G beads)) VH: EVQLVESGGGLVQPGGSLRLSCAASGFTFSSYAMSWVRQAPGKGLEWVSAISGSGGSSHYTDSVKGRFTISRDNSKNTLWLQMNSLRAEDTAIYYCAKTSGSYYYHYEIDVWGQGTTVTVSS VL: EIVLTQSPGTLSLSPGERATLSCRASQSVSSSYLAWYQQKPGQAPRLLIYGTSNRATGIPDRFSGSGSGTDFTLTVSRLEPEDFAVYYCQQYGSSPCSFGQGTKLELK", "values": [{"measurement": "binding result", "setting": "[15]", "value": "binds"}]}
